# Test results: US20240132615A1 (ICHNOS SCIENCES, published 2024)
# Substitutions are numbered along the chain they refer to.
# T1: recombinant human BCMA protein (Acrobiosystems BCA-H522y) (human, UniProt Q02223 1-54)
# T1 construct: bought protein
# T1 sequence (looked up): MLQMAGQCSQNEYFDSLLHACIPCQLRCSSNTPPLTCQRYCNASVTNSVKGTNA
# T2: human BCMA on cells (NCI-H929, NCI-H929 CD38 KO, MOLP-8) (human, UniProt Q02223 1-184)
# T2 construct: whole, on cells; endogenous BCMA of myeloma cell lines
# T2 sequence (looked up): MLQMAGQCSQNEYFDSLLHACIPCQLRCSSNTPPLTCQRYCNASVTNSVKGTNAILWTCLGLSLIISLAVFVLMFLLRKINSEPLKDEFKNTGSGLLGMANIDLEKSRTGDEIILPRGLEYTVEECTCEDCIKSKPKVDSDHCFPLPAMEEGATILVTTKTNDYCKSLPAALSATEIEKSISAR
# T3: Biotinylated Human BCMA/TNFRSF17 Protein, His, Avitag (Acrobiosystems BCA-H82E4) (human, UniProt Q02223 1-54, biotinylated)
# T3 construct: bought protein; also called biotinylated recombinant human BCMA protein; hBCMA
# T3 sequence (looked up): T1 sequence (looked up)
# B1: anti-BCMA-PP02-F1 FAB (Fab, V domains shown)
# VH: EVQLLESGGGLVQPGGSLRLSCAASGFSFSEYAMSWVRQAPGKGLEWVSALSLSGDVTSYADSVKGRFTISRDNSKNTLYLQMNSLRAEDTAVYYCARSPYSRVGDSYYYDYIGFDIWGQGTLVTVSS
# VL: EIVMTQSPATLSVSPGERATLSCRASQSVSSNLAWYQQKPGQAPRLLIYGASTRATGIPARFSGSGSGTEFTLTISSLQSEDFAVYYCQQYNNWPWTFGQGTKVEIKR
# notes: Fab
# B2: Anti-CD3-UCP07-A4 IgG1LALA (antibody, V domains shown)
# VH: EVQLLESGGGLVQPGGSLRLSCAASGSTFRRYVMGWVRQAPGKGLEWVSAISQQGGYTYYADSVKGRFTISRDNSKNTLYLQMNSLRAEDTAVYYCARSSSSAFDVWGQGTLVTVSS
# VL: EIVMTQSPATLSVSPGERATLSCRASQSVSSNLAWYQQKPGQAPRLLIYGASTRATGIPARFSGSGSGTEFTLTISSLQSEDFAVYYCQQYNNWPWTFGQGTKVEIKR
# notes: IgG1 LALA
# B3: Anti-CD3-UCP06-C1 IgG1LALA (antibody, V domains shown)
# VH: QVQLVQSGAEVKKPGSSVKVSCKASGGKFSRYAISWVRQAPGQGLEWMGGIIPKGGYAEYAQKFQGRVTITADESTSTAYMELSSLRSEDTAVYYCARYGYSLYMDIWGQGTLVTVSS
# VL: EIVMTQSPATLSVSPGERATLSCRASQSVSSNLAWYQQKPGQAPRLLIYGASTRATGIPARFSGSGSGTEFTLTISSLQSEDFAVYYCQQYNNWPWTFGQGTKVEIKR
# notes: IgG1 LALA; also called anti-CD3-C1
# B4: anti-BCMA-PP02-C2 FAB (Fab, V domains shown)
# VH: QVQLVQSGAEVKKPGSSVKVSCKASGGHFSSYAISWVRQAPGQGLEWMGGIIPQHGVPSYAQKFQGRVTITADESTSTAYMELSSLRSEDTAVYYCARVLITVDGSYGGFDYWGQGTLVTVSS
# VL: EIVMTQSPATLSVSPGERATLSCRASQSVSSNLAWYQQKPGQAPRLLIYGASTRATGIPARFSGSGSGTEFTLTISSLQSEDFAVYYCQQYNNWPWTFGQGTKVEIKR
# notes: Fab
# B5: anti-BCMA-UCP01-C2 FAB (Fab, V domains shown)
# VH: EVQLLESGGGLVQPGGSLRLSCAASGFIFSQYDMSWVRQAPGKGLEWVSAISLLGDFTSYADSVKGRFTISRDNSKNTLYLQMNSLRAEDTAVYYCARRLTDYISGGGDGFDVWGQGTLVTVSS
# VL: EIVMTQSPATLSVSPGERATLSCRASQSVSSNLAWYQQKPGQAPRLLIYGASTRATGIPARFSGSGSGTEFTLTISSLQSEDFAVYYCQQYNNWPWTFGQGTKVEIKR
# notes: Fab
# B6: Anti-BCMA-E6-PP02-G2 FAB (Fab, V domains shown)
# VH: EVQLLESGGGLVQPGGSLRLSCAASGFTFSYYAMTWVRQAPGKGLEWVGTISQSVGQVVKYADSVKGRFTISRDNSKNTLYLQMNSLRAEDTAVYYCARSPYSYLHGYYGFDYWGQGTLVTVSS
# VL: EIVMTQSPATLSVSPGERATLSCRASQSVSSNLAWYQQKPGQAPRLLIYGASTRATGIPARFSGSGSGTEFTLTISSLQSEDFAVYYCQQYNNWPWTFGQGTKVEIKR
# notes: Fab
# B7: Anti-BCMA-E6-PP02-D2 FAB (Fab, V domains shown)
# VH: EVQLLESGGGLVQPGGSLRLSCAASGFTFSYYAMTWVRQAPGKGLEWVSTISQQNEQTKYADSVKGRFTISRDNSKNTLYLQMNSLRAEDTAVYYCARSPYSYLHGYYGFDYWGQGTLVTVSS
# VL: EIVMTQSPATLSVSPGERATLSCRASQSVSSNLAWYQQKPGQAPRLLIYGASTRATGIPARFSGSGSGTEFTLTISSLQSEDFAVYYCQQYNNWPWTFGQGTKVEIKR
# notes: Fab
# B8: anti-BCMA-PP02-E6 FAB (Fab, V domains shown)
# VH: B7 VH with Q54N, N55G, E56G
# VL: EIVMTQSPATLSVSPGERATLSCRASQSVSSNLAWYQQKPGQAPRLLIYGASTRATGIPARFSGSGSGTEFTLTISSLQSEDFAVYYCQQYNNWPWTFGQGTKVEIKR
# notes: Fab; also called anti-BCMA-E6; anti-BCMA-E6 Fab
# B9: Anti-BCMA-E6-PP02-B1 FAB (Fab, V domains shown)
# VH: B7 VH with I51V, Q54A, N55G, E56Y, Q57D
# VL: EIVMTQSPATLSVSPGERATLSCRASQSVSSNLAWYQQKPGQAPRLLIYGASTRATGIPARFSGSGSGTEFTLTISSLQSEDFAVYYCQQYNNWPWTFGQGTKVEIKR
# notes: Fab; also called anti-BCMA-E6-B1; E6-B1
# B10: Anti-BCMA-E6-PP02-G6 FAB (Fab, V domains shown)
# VH: B7 VH with S52A, Q54R, N55G, E56G
# VL: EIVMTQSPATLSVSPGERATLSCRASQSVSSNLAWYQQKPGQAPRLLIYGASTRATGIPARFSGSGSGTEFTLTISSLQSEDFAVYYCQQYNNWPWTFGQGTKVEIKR
# notes: Fab; also called anti-BCMA-E6-G6; E6-G6
# B11: Anti-BCMA-E6-PP02-A3 FAB (Fab, V domains shown)
# VH: B7 VH with Q53S, E56D, Q57I
# VL: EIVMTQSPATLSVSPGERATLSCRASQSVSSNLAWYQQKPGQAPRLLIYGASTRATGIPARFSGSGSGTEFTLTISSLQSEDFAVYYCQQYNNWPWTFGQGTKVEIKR
# notes: Fab
# B12: Anti-BCMA-E6-PP02-B4 FAB (Fab, V domains shown)
# VH: B7 VH with Q54P, N55G, E56F, Q57D, T58A
# VL: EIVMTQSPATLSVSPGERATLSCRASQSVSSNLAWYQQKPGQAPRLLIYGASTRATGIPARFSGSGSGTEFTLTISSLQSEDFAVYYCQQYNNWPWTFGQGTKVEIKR
# notes: Fab
# B13: Anti-BCMA-E6-PP02-F7 FAB (Fab, V domains shown)
# VH: B7 VH with S52G, Q54R, N55G, E56F
# VL: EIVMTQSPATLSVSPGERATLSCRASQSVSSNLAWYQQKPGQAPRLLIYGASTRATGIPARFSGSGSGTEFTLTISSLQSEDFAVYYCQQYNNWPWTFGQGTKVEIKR
# notes: Fab
# B14: Anti-BCMA-E6-PP02-E6 FAB (Fab, V domains shown)
# VH: B7 VH with Q54A, N55G, E56R, Q57D, T58F
# VL: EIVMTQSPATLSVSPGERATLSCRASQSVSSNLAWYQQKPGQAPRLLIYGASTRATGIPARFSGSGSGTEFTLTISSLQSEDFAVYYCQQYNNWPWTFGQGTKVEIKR
# notes: Fab; also called anti-BCMA-E6-E6; E6-E6
# B15: Anti-BCMA-E6-PP02-G7 FAB (Fab, V domains shown)
# VH: B7 VH with N55W, E56D, Q57V
# VL: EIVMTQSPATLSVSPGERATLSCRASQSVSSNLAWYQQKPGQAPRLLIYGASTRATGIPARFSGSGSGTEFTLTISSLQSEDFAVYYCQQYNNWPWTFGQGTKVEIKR
# notes: Fab
# B16: Anti-BCMA-E6-PP02-C7 FAB (Fab, V domains shown)
# VH: B7 VH with Q54S, N55G, E56L, Q57V, T58P
# VL: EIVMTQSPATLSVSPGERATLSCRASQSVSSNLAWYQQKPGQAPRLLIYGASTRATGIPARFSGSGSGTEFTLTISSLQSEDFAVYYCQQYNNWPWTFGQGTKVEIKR
# notes: Fab
# B17: Anti-CD3-UCP07-B2 IgG1LALA (antibody, V domains shown)
# VH: EVQLVESGGGLVKPGGSLRLSCAASGFDFGKAWMAWVRQAPGKGLEWVGRIKSDFKGGDTIYAAPVKGRFTISRDDSKNTLYLQMNSLKTEDTAVYYCARGRSRGVSEFDYWGQGTLVTVSS
# VL: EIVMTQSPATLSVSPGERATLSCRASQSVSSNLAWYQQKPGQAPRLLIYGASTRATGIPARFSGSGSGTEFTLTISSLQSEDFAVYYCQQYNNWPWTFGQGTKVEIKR
# notes: IgG1 LALA
# B18: anti-BCMA-UCP01-A8 FAB (Fab, V domains shown)
# VH: QVQLVQSGAEVKKPGSSVKVSCKASGGLFNYYIINWVRQAPGQGLEWMGGIIPTYGGAGYAQKFQGRVTITADESTSTAYMELSSLRSEDTAVYYCARSSPSISGYAFDVWGQGTLVTVSS
# VL: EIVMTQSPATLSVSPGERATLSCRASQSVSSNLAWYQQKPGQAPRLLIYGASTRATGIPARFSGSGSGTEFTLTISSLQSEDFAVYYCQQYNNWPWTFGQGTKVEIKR
# notes: Fab
# B19: anti-BCMA-UCP01-F9 FAB (Fab, V domains shown)
# VH: QVQLVQSGAEVKKPGSSVKVSCKASGYKFRTYAINWVRQAPGQGLEWMGGIVPISGETFYAQKFQGRVTITADESTSTAYMELSSLRSEDTAVYYCAREDYSDYWGQGTLVTVSS
# VL: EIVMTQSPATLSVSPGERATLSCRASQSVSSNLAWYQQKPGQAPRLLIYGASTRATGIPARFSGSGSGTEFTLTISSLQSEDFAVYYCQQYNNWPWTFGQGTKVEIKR
# notes: Fab
# B20: anti-BCMA-PP03-E4 FAB (Fab, V domains shown)
# VH: EVQLLESGGGLVQPGGSLRLSCAASGFALSYYAMSWVRQAPGKGLEWVSAISEDGGRTSYADSVKGRFTISRDNSKNTLYLQMNSLRAEDTAVYYCARASAYIPYSEFYAGFDVWGQGTLVTVSS
# VL: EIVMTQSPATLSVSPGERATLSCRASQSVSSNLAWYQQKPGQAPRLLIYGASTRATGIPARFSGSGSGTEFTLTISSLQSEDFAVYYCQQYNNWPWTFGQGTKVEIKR
# notes: Fab
# B21: Anti-CD3-UCP07-F3 IgG1LALA (antibody, V domains shown)
# VH: EVQLLESGGGLVQPGGSLRLSCAASGFNFSGHAVGWVRQAPGKGLEWVSAISQNGGYTLYADSVKGRFTISRDNSKNTLYLQMNSLRAEDTAVYYCARAASYGLDYALDIWGQGTLVTVSS
# VL: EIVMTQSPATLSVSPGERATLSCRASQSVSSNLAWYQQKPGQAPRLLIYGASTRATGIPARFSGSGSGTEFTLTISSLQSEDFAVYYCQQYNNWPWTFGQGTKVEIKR
# notes: IgG1 LALA
# B22: anti-BCMA-PP02-D3 FAB (Fab, V domains shown)
# VH: EVQLVESGGGLIQPGGSLRLSCAASGFIFSHYEMNWVRQAPGKGLEWVSAIGQGGNTVYADSVKGRFTISRDNSKNTLYLQMNSLRAEDTAVYYCARVPYSYSGYSGADIWGQGTLVTVSS
# VL: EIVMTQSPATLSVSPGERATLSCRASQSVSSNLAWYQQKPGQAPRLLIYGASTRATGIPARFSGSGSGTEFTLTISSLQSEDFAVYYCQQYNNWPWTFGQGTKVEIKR
# notes: Fab; also called anti-BCMA-D3; anti-BCMA-D3 Fab
# B23: anti-BCMA-UCP01-E9 FAB (Fab, V domains shown)
# VH: EVQLLESGGGLVQPGGSLRLSCAASGFTFSNYAMSWVRQAPGKGLEWVSVISERGAVTVYADSVKGRFTISRDNSKNTLYLQMNSLRAEDTAVYYCARSPYGYSSGVEGYFGFDVWGQGTLVTVSS
# VL: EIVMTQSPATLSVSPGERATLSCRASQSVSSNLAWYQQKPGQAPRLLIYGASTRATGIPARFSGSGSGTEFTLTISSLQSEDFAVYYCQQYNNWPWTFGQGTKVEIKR
# notes: Fab
# B24: anti-BCMA-PP02-C4 FAB (Fab, V domains shown)
# VH: EVQLLESGGGLVQPGGSLRLSCAASGFTFTAYDMSWVRQAPGKGLEWVSAISGFGGDTLYADSVKGRFTISRDNSKNTLYLQMNSLRAEDTAVYYCARIGYYYLDSAFDYWGQGTLVTVSS
# VL: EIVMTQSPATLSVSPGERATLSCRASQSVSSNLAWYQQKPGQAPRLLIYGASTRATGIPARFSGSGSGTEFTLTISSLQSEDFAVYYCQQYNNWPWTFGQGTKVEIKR
# notes: Fab
# B25: anti-BCMA-PP03-C4 FAB (Fab, V domains shown)
# VH: B24 VH
# VL: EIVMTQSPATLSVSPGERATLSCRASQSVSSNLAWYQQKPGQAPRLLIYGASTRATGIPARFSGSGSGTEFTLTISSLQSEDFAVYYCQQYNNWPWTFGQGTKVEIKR
# notes: Fab
# B26: anti-BCMA-PP02-B4 FAB (Fab, V domains shown)
# VH: B24 VH with T30S, A31N, G53V, F54S, G56D, D57F, L59Q, I99V, Y103L, Y110I
# VL: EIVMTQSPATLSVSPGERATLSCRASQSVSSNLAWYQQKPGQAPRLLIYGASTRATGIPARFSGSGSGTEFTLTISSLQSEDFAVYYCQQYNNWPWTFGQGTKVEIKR
# notes: Fab
# B27: anti-BCMA-UCP01-E8 FAB (Fab, V domains shown)
# VH: QVQLVQSGAEVKKPGSSVKVSCKASGGQFSVQFISWVRQAPGQGLEWMGGIIPTSGDTYYAQKFQGRVTITADESTSTAYMELSSLRSEDTAVYYCARSVVDLSYVTGYYYMDIWGQGTLVTVSS
# VL: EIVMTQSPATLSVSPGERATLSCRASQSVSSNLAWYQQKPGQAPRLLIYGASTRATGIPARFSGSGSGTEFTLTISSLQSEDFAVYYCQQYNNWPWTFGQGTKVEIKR
# notes: Fab
# Assays:
# [1] = molecular target: T1, recombinant human BCMA protein …; assay: SPR, Fab as analyte, immobilised human BCMA, 1:1 Langmuir
# [2] = molecular target: T4, recombinant cynomolgus monkey BCMA protein (Acrobiosystems BCA-C52H7) (cynomolgus monkey, UniProt A0A2K5UD97 1-53); assay: SPR, Fab as analyte, immobilised cynomolgus BCMA, 1:1 Langmuir
# [3] = molecular target: T5, human CD3 on cells (HPB-ALL cells, primary human T cells) (human, UniProt P07766 23-207); assay: flow cytometry on CD4+ T cells in human PBMCs, anti-human IgG PE secondary
# T5 construct: whole, on cells; only the epsilon chain is written
# [4] = molecular target: T5, human CD3 on cells (HPB-ALL cells, …); assay: flow cytometry, human CD4+ T cells
# [5] = molecular target: T4, recombinant cynomolgus monkey BCMA …; assay: SPR, Fab as analyte, immobilised cynomolgus BCMA
# [6] = molecular target: T2, human BCMA on cells (NCI-H929, NCI-H929 …); assay: flow cytometry, NCI-H929 cells, one-site fit
# [7] = molecular target: T2, human BCMA on cells (NCI-H929, NCI-H929 …); assay: flow cytometry, NCI-H929 cells
# [8] = molecular target: T3, Biotinylated Human BCMA/TNFRSF17 …; assay: SPR, Fab as analyte, biotin-captured human BCMA
# [9] = molecular target: T6, biotinylated recombinant cynomolgus monkey BCMA Fc fusion protein (Acrobiosystems BCA-C82F4) (cynomolgus monkey, UniProt A0A2K5UD97 1-53); assay: SPR, Fab as analyte, biotin-captured cynomolgus BCMA-Fc
# T6 construct: bought protein; not shown: Fc of the bought fusion protein, not described
# T6 sequence (A0A2K5UD97 entry or part of it): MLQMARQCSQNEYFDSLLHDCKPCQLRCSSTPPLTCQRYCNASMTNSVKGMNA
# T5 sequence (P07766 23-207): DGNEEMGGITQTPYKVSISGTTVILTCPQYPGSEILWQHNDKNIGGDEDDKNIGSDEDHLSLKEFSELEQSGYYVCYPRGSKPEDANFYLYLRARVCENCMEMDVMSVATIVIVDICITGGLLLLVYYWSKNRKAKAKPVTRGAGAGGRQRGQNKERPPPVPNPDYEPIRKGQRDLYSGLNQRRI
# T4 sequence (A0A2K5UD97 entry or part of it): as the sequence (A0A2K5UD97 entry or part of it) above
Binder,Kd [1],Kd [6],Maximum binding (RFI) [7],Kd [8],Kd [9],further results
B1,145 nM,–,–,–,–,Kd [2]: 598 nM
B2,–,–,–,–,–,binding result [3]: no binding (tested: 800 nM)
B3,–,–,–,–,–,EC50 (read off the curve) [3]: ~40 nM; MFI at 800 nM [4]: 45200 MFI
B4,915 nM,–,–,–,–,binding result [5]: no binding
B5,336 nM,–,–,–,–,binding result [5]: no binding
B6,–,5.22 nM,40500 RFI,0.176 nM,0.728 nM,–
B7,–,6.58 nM,36300 RFI,0.342 nM,0.97 nM,–
B8,18 nM,–,–,–,–,Kd [2]: 52 nM
B9,–,3.72 nM,34700 RFI,0.182 nM,0.51 nM,–
B10,–,5.78 nM,46500 RFI,0.33 nM,2.26 nM,–
B11,–,6.37 nM,40200 RFI,0.33 nM,0.915 nM,–
B12,–,5.49 nM,43500 RFI,0.086 nM,0.857 nM,–
B13,–,5.53 nM,44700 RFI,0.22 nM,0.964 nM,–
B14,–,5.13 nM,43200 RFI,0.169 nM,0.615 nM,–
B15,–,4.86 nM,39400 RFI,0.061 nM,0.237 nM,–
B16,–,6.83 nM,38600 RFI,0.3 nM,1.19 nM,–
B17,–,–,–,–,–,binding result [3]: no binding (tested: 800 nM)
B18,235 nM,–,–,–,–,binding result [5]: no binding
B19,617 nM,–,–,–,–,binding result [5]: no binding
B20,582 nM,–,–,–,–,Kd [2]: 696 nM
B21,–,–,–,–,–,binding result [3]: no binding (tested: 800 nM)
B22,15 nM,–,–,–,–,Kd [2]: 40 nM
B23,10 nM,–,–,–,–,Kd [2]: 236 nM
B24,608 nM,–,–,–,–,Kd [2]: 114 nM
B25,549 nM,–,–,–,–,Kd [2]: 109 nM
B26,648 nM,–,–,–,–,Kd [2]: 58 nM
B27,1740 nM,–,–,–,–,binding result [5]: no binding
